Experimental data reported in patent publication US20120288510A1 (UNIVERSITY OF MASSACHUSETTS, published 2012).
Like-named read-outs stand apart in the source and are kept apart here. No end group written: not given here.

How the values were obtained:
[1] = biological target: T1, E2-G bacterially expressed thioredoxin fusion protein (pET32-E2-G, E2 amino acids 412 to 423) (Hepatitis C virus genotype 1a, not fully specified (N-terminus); also: N-terminal thioredoxin fusion partner); assay: ELISA on coated bacterial fusion protein; two-fold antibody dilutions; goat anti-human AP, PNPP
T1 construct: also called WT; not shown: thioredoxin, N-terminal fusion partner of the pET32 vector; C-terminal myc and 6 histidine tags
T1 chain: QLINTNGSWHIN-{myc tag-His6}

[2] = biological target: E2-D; assay: as above
Chain of E2-D (P27958 436-463, tags left off): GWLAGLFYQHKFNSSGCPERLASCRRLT

[3] = biological target: T1, E2-G bacterially expressed thioredoxin …; assay: Biacore SPR; antibody captured on goat anti-human IgG Fc, E2-G flowed over at varying concentrations; BIAevaluation fit
[4] = biological target: T2, E2-G bacterially expressed fusion protein with the E2 412-423 sequence of genotype 6g (Hepatitis C virus genotype 6g, not fully specified (N-terminus); also: N-terminal thioredoxin fusion partner); assay: ELISA on coated bacterial fusion protein; two-fold antibody dilutions; goat anti-human AP, PNPP
T2 construct: not shown: thioredoxin, N-terminal fusion partner of the pET32 vector; C-terminal myc and 6 histidine tags
T2 chain: QLIKTNGSWHIN-{myc tag-His6}

[5] = biological target: T3, E2-G bacterially expressed fusion protein with the E2 412-423 sequence of genotype 4a (Hepatitis C virus genotype 4a, also: vector linker residues not given here); assay: as above
T3 construct: not shown: thioredoxin, N-terminal fusion partner of the pET32 vector; C-terminal myc and 6 histidine tags
T3 chain: thioredoxin-QLINSNGSWHIN-{myc tag-His6 tag}

[6] = biological target: T4, E2-G bacterially expressed fusion protein with the E2 412-423 sequence of genotype 6k (Hepatitis C virus genotype 6k, not fully specified (N-terminus); also: N-terminal thioredoxin fusion partner); assay: as above
T4 construct: not shown: thioredoxin, N-terminal fusion partner of the pET32 vector; C-terminal myc and 6 histidine tags
T4 chain: QLINSNGSWHVN-{myc tag-His6}

[7] = biological target: T1, E2-G bacterially expressed thioredoxin …; assay: as above
[8] = biological target: T5, E2-G bacterially expressed fusion protein with the E2 412-423 sequence of genotype 3a (Hepatitis C virus genotype 3a, also: vector linker residues not given here); assay: as above
T5 construct: not shown: thioredoxin, N-terminal fusion partner of the pET32 vector; C-terminal myc and 6 histidine tags
T5 chain: thioredoxin-QLVNSSGSWHIN-{myc tag-His6 tag}

[9] = biological target: T6, E2-G bacterially expressed fusion protein with the E2 412-423 sequence of genotype 5a (Hepatitis C virus genotype 5a, not fully specified (N-terminus); also: N-terminal thioredoxin fusion partner); assay: as above
T6 construct: not shown: thioredoxin, N-terminal fusion partner of the pET32 vector; C-terminal myc and 6 histidine tags
T6 chain: QFVNTNGSWHIN-{myc tag-His6}

[10] = biological target: T7, E2-G bacterially expressed fusion protein with the E2 412-423 sequence of genotype 2b (Hepatitis C virus genotype 2b, also: vector linker residues not given here); assay: as above
T7 construct: not shown: thioredoxin, N-terminal fusion partner of the pET32 vector; C-terminal myc and 6 histidine tags
T7 chain: thioredoxin-HLVNSNGSWHIN-{myc tag-His6 tag}

[11] = biological target: T8, soluble HCV genotype 1b E2-661 (pCDNA-1b-E2-661) (Hepatitis C virus genotype 1b); assay: ELISA on plate coated with 2 µg/ml antigen; two-fold antibody dilutions; goat anti-human AP, PNPP
T8 construct: range 364-661

[12] = biological target: T9, G418A; assay: ELISA on coated bacterial fusion protein; two-fold antibody dilutions; goat anti-human AP, PNPP
T9 construct: alanine scanning mutant of E2-G; also called pET32-E2-G-G418A

[13] = biological target: T10, T416A; assay: as above
T10 construct: alanine scanning mutant of E2-G; also called pET32-E2-G-T416A; not shown: N-terminal thioredoxin partner and vector-encoded stretch of pET32

[14] = biological target: T11, I414A (not fully specified); assay: as above
T11 construct: alanine scanning mutant of E2-G; also called pET32-E2-G-I414A (printed in the text as pET32-E2-G-1414A); not shown: N-terminal thioredoxin partner and vector-encoded stretch of pET32
T11 chain: QLANTNGSWHINHHHHHH

[15] = biological target: T12, N415A (not fully specified); assay: as above
T12 construct: alanine scanning mutant of E2-G; also called pET32-E2-G-N415A; not shown: N-terminal thioredoxin partner and vector-encoded stretch of pET32
T12 chain: QLIATNGSWHINHHHHHH

[16] = biological target: L413A; assay: as above
[17] = biological target: T13, I422A; assay: as above
T13 construct: alanine scanning mutant of E2-G; also called pET32-E2-G-I422A (printed in the text as pET32-E2-G-1422A)

[18] = biological target: T14, S419A; assay: as above
T14 construct: alanine scanning mutant of E2-G; also called pET32-E2-G-S419A

[19] = biological target: T1, E2-G bacterially expressed thioredoxin …; assay: as above
[20] = biological target: T15, H421A; assay: as above
T15 construct: alanine scanning mutant of E2-G; also called pET32-E2-G-H421A

[21] = biological target: T16, N417A; assay: as above
T16 construct: alanine scanning mutant of E2-G; also called pET32-E2-G-N417A

[22] = biological target: T17, Q412A (not fully specified); assay: as above
T17 construct: alanine scanning mutant of E2-G; also called pET32-E2-G-Q412A; not shown: N-terminal thioredoxin partner and vector-encoded stretch of pET32
T17 chain: ALINTNGSWHINHHHHHH

[23] = biological target: T18, N423A; assay: as above
T18 construct: alanine scanning mutant of E2-G; also called pET32-E2-G-N423A

[24] = biological target: E2-G bacterially expressed fusion protein with the E2 412-423 sequence of a genotype 5 strain (genba (Hepatitis C virus genotype 5)); assay: ELISA, fusion protein coated on plate
[25] = biological target: E2-D; assay: ELISA on coated bacterial fusion protein; two-fold antibody dilutions; goat anti-human AP, PNPP; remark: listed apart in the source
[26] = biological target: T2, E2-G bacterially expressed fusion …; assay: as above
[27] = biological target: T3, E2-G bacterially expressed fusion …; assay: as above
[28] = biological target: T4, E2-G bacterially expressed fusion …; assay: as above
[29] = biological target: T1, E2-G bacterially expressed thioredoxin …; assay: as above
[30] = biological target: T5, E2-G bacterially expressed fusion …; assay: as above
[31] = biological target: T7, E2-G bacterially expressed fusion …; assay: as above
[32] = biological target: T10, T416A; assay: as above; remark: listed apart in the source
[33] = biological target: T11, I414A; assay: as above
[34] = biological target: T12, N415A; assay: as above
[35] = biological target: T13, I422A; assay: as above; remark: listed apart in the source
[36] = biological target: T14, S419A; assay: as above; remark: listed apart in the source
[37] = biological target: T1, E2-G bacterially expressed thioredoxin …; assay: as above
[38] = biological target: T15, H421A; assay: as above; remark: listed apart in the source
[39] = biological target: T16, N417A; assay: as above; remark: listed apart in the source
[40] = biological target: T17, Q412A; assay: as above
[41] = biological target: T18, N423A; assay: as above; remark: listed apart in the source

B1: human antibody 95-2 (antibody, V domains shown)
VH: QVQLVESGGGVVQPGRSLRLSCAASGFTFSSYGMHWVRQAPGKGLEWVAVIWFDGNNQYYADSVKGRFTISRDNSKNTLYLQMNSLRAEDTAVYYCARDIFTVVRGFFIYFDYWGQGTLVTVSS
VL: EIVLTQSPATLSLSPGERATLSCRASQSVGSYLAWYQQKPGQAPRLLIYDASNRATGIPARFSGSGSGTDFTLTISSLEPEDFAVYYCQQRSNWVTFGQGTRLEIK
notes: also called clone 95-2
For B1, which “EC50 (read off the curve)” value [1] is on record?
Its value is ~0.04 µg/mL.

Does B1 bind [2]?
Result: no binding (tested: 1 µg/ml)

And the Kd [3]?
Its Kd is 1.9 nM.

What about the koff [3] of the same binder?
The koff was 0.0003 s⁻¹.

And the kon [3]?
The kon was 160000 M⁻¹ s⁻¹.

And the “EC50 (read off the curve)” value [4]?
Its value is ~0.02 µg/mL.

What about the “EC50 (read off the curve)” value [5] of the same binder?
Its value is ~0.02 µg/mL.

What about the “EC50 (read off the curve)” value [6] of the same binder?
Its value is ~0.02 µg/mL.

What about the “EC50 (read off the curve)” value [7] of the same binder?
Its value is ~0.02 µg/mL.

And the “EC50 (read off the curve)” value [8]?
The value was ~0.02 µg/mL.

And the “EC50 (read off the curve)” value [9]?
Its value is ~0.02 µg/mL.

And the “EC50 (read off the curve)” value [10]?
The value was ~0.02 µg/mL.

And the “EC50 (read off the curve)” value [11]?
The value was ~0.1 µg/mL.

What about the “EC50 (read off the curve)” value [12] of the same binder?
The value was ~0.03 µg/mL.

What about the “EC50 (read off the curve)” value [13] of the same binder?
Its value is ~0.02 µg/mL.

What about the “EC50 (read off the curve)” value [14] of the same binder?
The value was ~0.02 µg/mL.

And the “EC50 (read off the curve)” value [15]?
The value was ~0.02 µg/mL.

Does B1 bind [16]?
Result: binds

What about the “EC50 (read off the curve)” value [17] of the same binder?
Its value is ~0.02 µg/mL.

And the “EC50 (read off the curve)” value [18]?
Its value is ~0.02 µg/mL.

And the “EC50 (read off the curve)” value [19]?
The value was ~0.02 µg/mL.

And the “EC50 (read off the curve)” value [20]?
Its value is ~0.02 µg/mL.

And the “EC50 (read off the curve)” value [21]?
The value was ~0.02 µg/mL.

What about the “EC50 (read off the curve)” value [22] of the same binder?
Its value is ~0.02 µg/mL.

What about the “EC50 (read off the curve)” value [23] of the same binder?
The value was ~0.02 µg/mL.

And the “fold reduction of recognition (reference not named)” value [24]?
The value was 10 fold.

B2: human antibody 83-128 (antibody, V domains shown)
VH: QVQLVESGGGVVQPGRSLRLSCTASGFTFNNYGMHWVRQTPGKGLEWLAVIWFDENNKYYADSVRGRFTISRDNSKNTLFLQMNSLKTEDTAMYYCARDISLVRDAFIYFDFWGLGTLVTVSS
VL: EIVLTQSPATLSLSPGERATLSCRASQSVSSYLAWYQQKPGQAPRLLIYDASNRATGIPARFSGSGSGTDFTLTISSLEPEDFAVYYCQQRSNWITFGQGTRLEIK
Which results are given for B2?
binding result [25]: no binding (tested: 1 µg/ml); Kd [3]: 3.8 nM; koff [3]: 0.00073 s⁻¹; kon [3]: 190000 M⁻¹ s⁻¹; EC50 (read off the curve) [26]: ~0.006 µg/mL; EC50 (read off the curve) [27]: ~0.006 µg/mL; EC50 (read off the curve) [28]: ~0.006 µg/mL; EC50 (read off the curve) [29]: ~0.006 µg/mL; EC50 (read off the curve) [30]: ~0.006 µg/mL; EC50 (read off the curve) [31]: ~0.006 µg/mL; EC50 (read off the curve) [32]: ~0.02 µg/mL; EC50 (read off the curve) [33]: ~0.03 µg/mL; EC50 (read off the curve) [34]: ~0.02 µg/mL; EC50 (read off the curve) [35]: ~0.02 µg/mL; EC50 (read off the curve) [36]: ~0.02 µg/mL; EC50 (read off the curve) [37]: ~0.02 µg/mL; EC50 (read off the curve) [38]: ~0.02 µg/mL; EC50 (read off the curve) [39]: ~0.02 µg/mL; EC50 (read off the curve) [40]: ~0.02 µg/mL; EC50 (read off the curve) [41]: ~0.02 µg/mL
